Target: SARS-CoV-2 spike protein, original Wuhan strain (WT) (SARS-CoV-2, UniProt P0DTC2 14-1273)
Assay: cell-based or functional assay

B1: A19-61.1 (antibody, V domains shown)
VH: QVQLVESGGGVVQPGRSLRLSCAASGFTFSSYAFHWVRQAPGKGLEWVAVISYDGSNQYYADSVKGRFTISRDNSKNTLYLQMNSLRADDTAVYYCARDLAIAVAGTWHYYNGMDVWGQGTTVTVSS
VL: DIQMTQSPSSVSASVGDRVIITCRASQGISSWLAWYQQKPGKAPKVLIYDASSLQSGVPSRFSGSGYGTDFTLTISSLQPEDSATYYCQQAKSFPITFGQGTRLEIK
For B1, which “IC50, pseudovirus neutralization” value is on record?
Its value is 0.172 nM.

Reference: patent US20240109955A1 (published 2024)
